Source: US20170129961A1 (Amgen, published 2017)

T1: human CD70 (human, UniProt P32970 1-193)
T1 construct: also called hu CD70; CD27L
T1 sequence: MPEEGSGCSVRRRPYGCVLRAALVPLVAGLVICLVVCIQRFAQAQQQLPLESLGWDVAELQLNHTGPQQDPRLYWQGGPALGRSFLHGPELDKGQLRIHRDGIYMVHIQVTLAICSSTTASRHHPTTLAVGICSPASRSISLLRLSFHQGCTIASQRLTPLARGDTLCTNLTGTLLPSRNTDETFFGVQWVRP

T2: full-length mouse CD70 with C-terminal V5 tag (mouse, UniProt O55237 1-195)
T2 construct: On transfected CHO cells; also called murine CD70
T2 sequence: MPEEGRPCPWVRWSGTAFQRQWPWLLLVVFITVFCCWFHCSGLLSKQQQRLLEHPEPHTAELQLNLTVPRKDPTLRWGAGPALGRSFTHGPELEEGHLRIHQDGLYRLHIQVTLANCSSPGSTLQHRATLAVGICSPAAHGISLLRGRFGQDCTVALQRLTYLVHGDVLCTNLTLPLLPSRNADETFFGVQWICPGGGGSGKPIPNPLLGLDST


Tests used:
human CD70 = target: T1, human CD70; experiment: FACS on CHO cells, periplasmic scFv
Experimental: (§1) All antibodies were diluted in PBS/1.5% FCS. As negative control, cells were incubated with PBS/2% FCS instead of the periplasmic extract. The samples were measured by flow cytometry.

[1] = target: T2, full-length mouse CD70 with C-terminal …; experiment: FACS on CHO cells, periplasmic scFv
Experimental: as §1

Binder	binding result (human CD70)	binding result [1]
CD70-58 (scFv) scFv: QVQLQESGPGLVKPSQTLSLTCTVSGGSISSSSYYWGWIRQPPGKGLEWIGSIYHSGGTYFNPSLKSRVTISVDTSKNQFSLKLSSVTAADTAVYYCARHYEILTGYYPDVFDIWGQGTMVTVSSGGGGSGGGGSGGGGSDIQMTQSPSSLSASVGDRVTITCRASQSISSYLNWYQQKPGKAPKLLIYAASNLQSGVSSRFSGSGSGTDFTLTISSLQPEDFATYYCQQSFSSPRTFGQGTKVEIK	binds	no binding
CD70-63 (scFv) scFv: EVQLVESGGGLVKPGGSLRLSCAASGITFSTYTMNWVRQAPGKGLEWVSSISSSSGYIYYADSVKGRFTISRDNAKNSLYLQMNSLRAEDTAVYYCARGDYSNYLYFDLWGRGTLVTVSSGGGGSGGGGSGGGGSEIVLTQSPGTLSLSPGERATLSCRASQSFRSSYLAWYQQKPGQAPRLLIHGASSRATGIPDRFSGSGSGTDFTLTISRLEPEDFAVYYCQLYGSLPITFGQGTRLEIK	binds	no binding
CD70-62 (scFv, As m32) scFv: EVQLVESGGGLVKPGGSLRLSCAASGFTFSSYSMNWVRQAPGKGLEWVSYISSSGGYIYYADSVKGRFTISRDNAKNSLYLQMNSLRAEDAAVYYCSRGDYSNYAYFDYWGQGTLVTVSSGGGGSGGGGSGGGGSDIQMTQSPSSLSASVGDRVTITCRASQGISNYLAWYQQKPGKVPKLLIYAASTLQSGVPSRFSGSGSGTDFTLTISSLQAEDVAVYYCQQYYSTPLTFGGGTKVEIK	binds	no binding
CD70-73 (scFv, As m32) scFv: EVQLVESGGGLVKPGGSLRLSCAASGFTFSSYSMNWVRQAPGKCLEWVSYISSSGGYIYYADSVKGRFTISRDNAKNSLYLQMNSLRAEDAAVYYCSRGDYSNYAYFDYWGQGTLVTVSSGGGGSGGGGSGGGGSDIQMTQSPSSLSASVGDRVTITCRASQGISNYLAWYQQKPGKVPKLLIYAASTLQSGVPSRFSGSGSGTDFTLTISSLQAEDVAVYYCQQYYSTPLTFGCGTKVEIK	binds	no binding
CD70-37 (scFv, As m32) scFv: EVQLLESGGGLVQPGGSLRLSCAASGFTFSSYAMSWVRQAPGKGLEWVSAIGDGGGYTYYADSVKGRFTISRDNSKNTLSLLMNSLRAEDTAVYYCARHDYSNYPYFDYWGQGTLVTVSSGGGGSGGGGSGGGGSEIVLTQSPGTLSLSPGERATLSCRASQGVRSSYFAWYQQKPGQAPRLLIYGASTRATGIPARFSGSGSGTDFTLTISRLEPEDFAVYYCQQYGSSPPTFGQGTKVEIK	binds	no binding
CD70-33 (scFv, As m32) scFv: EVQLLESGGGLVQPGGSLRLSCAASGFTFSTYAMSWVRQAPGKGLEWVSTISDSGGSTFYADSVMGRFTISRDNSKNTLYLQMNSLRAEDTAVYYCARHDYSNYAFFDYWGQGTLVTVSSGGGGSGGGGSGGGGSEIVLTQSPATLSVSPGERATLSCRASQSVSSNLAWYQQKPGQAPRLLIYGASSRATGIPDRFSGSGSGTDFTLTISSLQAEDVAVYYCQQYYSTPFTFGPGTKVEIK	binds	no binding
CD70-34 (scFv, As m32) scFv: EVQLLESGGGLVQPGGSLRLSCAASGFTFSTYAMSWVRQAPGKGLEWVSTISDSGGSTFYADSVMGRFTISRDNSKNTLYLQMNSLRAEDTAVYYCARHDYSNYAFFDYWGQGTLVTVSSGGGGSGGGGSGGGGSEIVLTQSPATLSVSPGERATLSCRASQSVSSNLAWYQQKPGQAPRLLIYGASTRATGIPARFSGSGSGTEFTLAISRLEPEDFAVYYCQQYYSTPFTFGGGTKVEIK	binds	no binding
CD70-48 (scFv, As m32) scFv: EVQLLESGGGLVQPGGSLRLSCAASGFTFSSYAMSWVRQAPGKGLEWVSVISDSGGITDFADSVKGRFTISRDNSRNTLYLQMNSLRAEDTAVYFCARHDYSNYFFFDYWGQGTLVTVSSGGGGSGGGGSGGGGSDIQMTQSPSSLSASVGDRVTITCRASQGISNYLAWYQQKPGKVPKLLIYAASILQSGVPSKFSGSGSGTDFTLTISSLQPEDFAIYYCQQYFAYPITFGQGTRLEIK	binds	no binding
CD70-68 (scFv, As m32) scFv: EVQLLESGGGLVQPGGSLRLSCAASGFTFSSYAMSWVRQAPGKCLEWVSVISDSGGITDFADSVKGRFTISRDNSRNTLYLQMNSLRAEDTAVYFCARHDYSNYFFFDYWGQGTLVTVSSGGGGSGGGGSGGGGSDIQMTQSPSSLSASVGDRVTITCRASQGISNYLAWYQQKPGKVPKLLIYAASILQSGVPSKFSGSGSGTDFTLTISSLQPEDFAIYYCQQYFAYPITFGCGTRLEIK	binds	no binding
CD70-44 (scFv, As m32) scFv: EVQLLESGGGLVQPGGSLRLSCAASGFTFSSYAMSWVRQAPGKGLEWVSVISDSGGITDFADSVKGRFIISRDNSRNTLYLQMNSLRAEDTAVYFCARHDYSNYFFFDYWGQGTLVTVSSGGGGSGGGGSGGGGSDIQMTQSPSSLSASVGDRVTITCRASQDISNYLNWYQQKSGKAPELLIYAASSLQSGVPSRFSGSGSGTDFTLTISSLQPEDFATYYCQQSYISPPTFGQGTKVEIK	binds	no binding
CD70-61 (scFv, As m32) scFv: EVQLLESGGGLVQPGGSLRLSCAASGFTFSSYAMSWVRQAPGKGLEWVSVISDSGGITDFADSVKGRFTISRDNSRNTLYLQMNSLRAEDTAVYFCARHDYSNYFFFDYWGQGTLVTVSSGGGGSGGGGSGGGGSDIQMTQSPSSLSASVGDRITITCRASQSISNYLNWYQQKPGKAPKLLISAASSLQSGVPSRFSGSGSGTDFTLTISSLQPEDFATYYCQQSYIIPPTFGQGTKVDIK	binds	no binding
CD70-67 (scFv, As m32) scFv: EVQLLESGGGLVQPGGSLRLSCAASGFTFSSYAMSWVRQAPGKCLEWVSVISDSGGITDFADSVKGRFIISRDNSRNTLYLQMNSLRAEDTAVYFCARHDYSNYFFFDYWGQGTLVTVSSGGGGSGGGGSGGGGSDIQMTQSPSSLSASVGDRVTITCRASQDISNYLNWYQQKSGKAPELLIYAASSLQSGVPSRFSGSGSGTDFTLTISSLQPEDFATYYCQQSYISPPTFGCGTKVEIK	binds	no binding
CD70-64 (scFv, As m32) scFv: EVQLLESGGGLVQPGGSLRLSCAASGFTFSVYAMSWVRQAPGKCLEWVSTISDSGGSTFYADSVKGRFTISRDNSKNTLYLQMNRLRAEDTAVYYCARHDYSNYAYFDYWGQGTLVTVSSGGGGSGGGGSGGGGSEIVLTQSPGTLSLSPGERATLSCRASQSVRSSYLAWYQQKPGQAPRLLIYGASSRATGIPDRFSGSGSGTDFTLTISRLEPEDFAVYYCQQYGDLPFTFGCGTKVEIK	binds	no binding
CD70-57 (scFv) scFv: QVQLVESGGGVVQPGRSLRLSCAASGFTFSSYGMHWVRQAPGKGLEWVAVIWYDGSSEYYADSVKGRFTISRDNSKNTLYLQMNSLRAEDTAVYYCARDNSYNYYGMDVWGQGTTVTVSSGGGGSGGGGSGGGGSQSVLTQPPSVSGAPGQRVTISCTGSSSNIGAAYDVHWYQQFPGTAPKLLIYVNSHRPPGVPDRFSGSKSGTSASLAITGLQAEDEADYYCLSYDNSLSGSVFGGGTKLTVL	binds	no binding
CD70-52 (scFv, As m32) scFv: QVQLQESGPGLVKPSETLSLTCTVSGGSVSTDGYYWSWIRQPPGKGLEWIGYIYYSGSTNYNPSLKSRVTISVDTSKNQFSLKLSSVTAADTAVYYCARGIGLGFEYWGQGTLVTVSSGGGGSGGGGSGGGGSSYVLTQLSSVSVAPGQTARITCGGNNIGSKSVHWYQQKPGQAPVLVVYDDSDRPSGIPERFSGSNSGNTATLTISRVEAGDEADYYCQVWDRSSDQDVVFGGGTKLTVL	binds	no binding
CD70-51 (scFv, As m32) scFv: QVQLQESGPGLVKPSETLSLTCTVSGGSVSTDGYYWSWIRQPPGKGLEWIGYIYYSGSTNYNPSLKSRVTISVDTSKNQFSLKLSSVTAADTAVYYCARGIGLGFEYWGQGTLVTVSSGGGGSGGGGSGGGGSSYVLTQLTSVSVAPGQTARITCGGNNIGSKSVHWYQQKPGQAPVLVVYDDSDRPSGIPERFSGSNSGNTATLTISRVEAGDEADFYCQVWDRSSDQDVVFGGGTKLTVL	binds	no binding
CD70-69 (scFv, As m32) scFv: QVQLQESGPGLVKPSETLSLTCTVSGGSVSTDGYYWSWIRQPPGKCLEWIGYIYYSGSTNYNPSLKSRVTISVDTSKNQFSLKLISVTAADTAVYYCARGIGLGFEYWGQGTLVTVSSGGGGSGGGGSGGGGSSYVLTQLSSVSVAPGQTARITCGGNNIGSKSVHWYQQKPGQAPVLVVYDDSDRPSGIPERFSGSNSGNTATLTISRVEAGDEADYYCQVWDRSSDQDVVFGCGTKLTVL	binds	no binding
CD70-59 (scFv) scFv: QVQLQQWGAGLLKPSETLSLTCAVYDGSVSGFYWSWIRQPPGKGLEWIGEIDHSGSTNYNPSLKSRVTISVDTSKNQFSLKLSSVTAADSAVYYCARNGYSGYLFDYWGQGTLVTVSSGGGGSGGGGSGGGGSDIQMTQSPSSLSASVGDRVTITCRASQIISSYLNWYQQKPGKAPKVLIYGASSMQSGVPSRFSGSGYGTDFTLTISSLQPEDFATYYCQQSYSIPRTFGQGTKLEIK	binds	no binding
